From patent US6835807B1, “Drug complex and drug delivery system” (Daiichi Pharmaceuticals Co., Ltd., priority 1998, dated 2004)
Marks after values point to notes of the source that are not given here.

Columns and labels:
Meth A cells = test: Antineoplastic activity of the complexes of Examples 1, 5 and 6 (Example 10); type: in vivo, BALB/c mice; conditions: for IR, diminution rate of the tumor: 21th day; for Average tumor weight: tumor weighed on the 21th day
Protocol: Meth A cells were transplanted into BALB/c mice to prepare Meth A tumor-bearing mice. On the 7th day after the transplantation, the drug complexes shown in Examples 1, 5 and 6 were singly administered, respectively. The weight of the tumor was measured on the 21th day to evaluate the inhibitory activity on the tumor and the toxicity. In the table, * represents significance in Dunnet's test (*** p<0.001, ** P<0.01, * P<0.05), the dose is expressed in terms of the weight of anhydrous free base of DX-8951, and IR represents the diminution rate of the tumor.

[1] = test system: Meth A tumor-bearing mice; test: Maximum tolerated dose of the drug complexes of Examples 5, 6 and 7 (Example 9); type: in vivo, BALB/c mice; conditions: for BWLmax, maximum body-weight reduction rate / N, mice died/mice used / day when the maximum body-weight reduction was observed: single administration on the 13th day
Protocol: Meth A cells were transplanted into BALB/c mice to prepare Meth A tumor-bearing mice. On the 13th day, the drug complexes obtained in Examples 5, 6 and 7 were singly administered. After the administration, measurement of the body weight and observation of toxic death were made with time, and the maximum body-weight reduction rate and mortality were calculated, which are shown in Table 5. The dose is expressed in terms of the weight of anhydrous free base of DX-8951.
On the basis of the dose in which body weight reduction and death were observed, MTD of each complex were judged as follows.

[2] = Release of the drug compound from the drug complex in plasma (Example 8); type: in vitro ADME; conditions: 37° C., 50 μg/ml, after 20 hours
Protocol: (§1) (50 μg/ml). […] The released amount of the drug is expressed in percentage of the released amount of the drug to the amount of the drug in the drug complex used.

[3] = Release of the drug compound from the drug complex in buffer (Example 8); type: physicochemical; conditions: for released amount of the drug (DX-8951), percentage of the drug in the drug complex used: 37° C., 50 μg/ml, after 20 hours
Protocol: as §1

[4] = Release of the drug compound from the drug complex in Meth A homogenate (Example 8); type: in vitro ADME, murine; conditions: for released amount of the drug (DX-8951), percentage of the drug in the drug complex used: 37° C., 50 μg/ml, after 20 hours
Protocol: as §1

[5] = 0.15625 mg/kg, singly administered on the 7th day
[6] = 0.3125 mg/kg, singly administered on the 7th day
[7] = 0.625 mg/kg, singly administered on the 7th day
[8] = 1.25 mg/kg, singly administered on the 7th day
[9] = 1.875 mg/kg, singly administered on the 7th day

Carboxymethyldextran polyalcohol-Gly-Gly-Phe-Gly-NH-p-C 6H4—CH2—O—CO-DX-8951 [Example 5]
BWLmax, maximum body-weight reduction rate (Meth A cells; [5]): <0%
N, mice died/mice used (Meth A cells; [5]): 0/6
IR, diminution rate of the tumor (Meth A cells; [5]): 9%
Average tumor weight (Meth A cells; [5]): 2.394 ± 0.231 g
BWLmax, maximum body-weight reduction rate (Meth A cells; [6]): <0%
N, mice died/mice used (Meth A cells; [6]): 0/6
IR, diminution rate of the tumor (Meth A cells; [6]): 57%
Average tumor weight (Meth A cells; [6]): 1.128 ± 0.173*** g
BWLmax, maximum body-weight reduction rate (Meth A cells; [7]): <0%
N, mice died/mice used (Meth A cells; [7]): 0/6
IR, diminution rate of the tumor (Meth A cells; [7]): 88%
Average tumor weight (Meth A cells; [7]): 0.328 ± 0.164*** g
BWLmax, maximum body-weight reduction rate (Meth A cells; [8]): <0%
N, mice died/mice used (Meth A cells; [8]): 0/6
IR, diminution rate of the tumor (Meth A cells; [8]): 100%
Average tumor weight (Meth A cells; [8]): 0.010 ± 0.004*** g
BWLmax, maximum body-weight reduction rate (Meth A cells; [9]): 12.3%
N, mice died/mice used (Meth A cells; [9]): 0/6
day when the maximum body-weight reduction was observed (Meth A cells; [9]): 13 days
IR, diminution rate of the tumor (Meth A cells; [9]): 100%
Average tumor weight (Meth A cells; [9]): 0.011 ± 0.003*** g
minimal effective dose relative to that of the drug complex shown in Example 1 (Meth A cells; Meth A tumor-bearing mice): about ⅓
BWLmax, maximum body-weight reduction rate ([1]; 0.625 mg/kg): 2.0%
N, mice died/mice used ([1]; 0.625 mg/kg): 0/3
day when the maximum body-weight reduction was observed ([1]; 0.625 mg/kg): 14 days
BWLmax, maximum body-weight reduction rate ([1]; 1.25 mg/kg): 5.0%
N, mice died/mice used ([1]; 1.25 mg/kg): 0/3
day when the maximum body-weight reduction was observed ([1]; 1.25 mg/kg): 18 days
BWLmax, maximum body-weight reduction rate ([1]; 5 mg/kg): 28.6%
N, mice died/mice used ([1]; 5 mg/kg): 3/3
day when the maximum body-weight reduction was observed ([1]; 5 mg/kg): 18 days
BWLmax, maximum body-weight reduction rate ([1]; 10 mg/kg): 27.1%
N, mice died/mice used ([1]; 10 mg/kg): 3/3
day when the maximum body-weight reduction was observed ([1]; 10 mg/kg): 18 days
MTD relative to MTD of the drug complex obtained in Example 1 ([1]; Meth A tumor-bearing mice): about ⅓
N, mice died/mice used ([1]; […]): 3/3
released amount of the drug (DX-8951), percentage of the drug in the drug complex used [2]: 0.13%
released amount of the drug (DX-8951), percentage of the drug in the drug complex used ([3]; Buffer (pH 4.5)): 0.79%
released amount of the drug (DX-8951), percentage of the drug in the drug complex used ([3]; Buffer (pH 5.5)): 0.71%
released amount of the drug (DX-8951), percentage of the drug in the drug complex used ([3]; Buffer (pH 6.5)): 0.8%
release of the drug in words ([3]; buffer): hardly released
released amount of the drug (DX-8951), percentage of the drug in the drug complex used ([4]; Meth A homogenate (pH 4.5)): 110.69%
released amount of the drug (DX-8951), percentage of the drug in the drug complex used ([4]; Meth A homogenate (pH 5.5)): 110.31%
released amount of the drug (DX-8951), percentage of the drug in the drug complex used ([4]; Meth A homogenate (pH 6.5)): 42.71%
release of the drug in words ([4]; weakly acidic homogenate): rapidly released
